Literature values as cited in patent US20230023414A1, “METHODS AND DEVICES FOR TREATING A DISEASE WITH BIOTHERAPEUTICS” (PROGENITY, INC., priority 2018, published 2023).

Conditions: SC administration

B1: pegfilgrastim (protein, UniProt P09919 31-207, looked up)
Granulocyte …: TPLGPASSLPQSFLLKCLEQVRKIQGDGAALQEKLVSECATYKLCHPEELVLLGHSLGIPWAPLSSCPSQALQLAGCLSQLHSGLFLYQGLLQALEGISPELGPTLDTLQLDVADFATTIWQQMEELGMAPALQPTQGAMPAFASAFQRRAGGVLVASHLQSFLEVSYRVLRHLAQP
modifications: N-terminal Met, 20 kDa PEG
Approved Dosing Info: Bio Avail: 70%

B2: emicizumab (antibody, chains of the INN, looked up, V domains shown)
VH: QVQLVQSGSELKKPGASVKVSCKASGYTFTDNNMDWVRQAPGQGLEWMGDINTRSGGSIYNEEFQDRVIMTVDKSTDTAYMELSSLRSEDTATYHCARRKSYGYYLDEWGEGTLVTVSS
VL: DIQMTQSPSSLSASVGDRVTITCKASRNIERQLAWYQQKPGQAPELLIYQASRKESGVPDRFSGSRYGTDFTLTISSLQPEDIATYYCQQYSDPPLTFGGGTKVEIK
VH2: QVQLVESGGGLVQPGGSLRLSCAASGFTFSYYDIQWVRQAPGKGLEWVSSISPSGQSTYYRREVKGRFTISRDNSKNTLYLQMNSLRAEDTAVYYCARRTGREYGGGWYFDYWGQGTLVTVSS
VL2: DIQMTQSPSSLSASVGDRVTITCKASRNIERQLAWYQQKPGQAPELLIYQASRKESGVPDRFSGSRYGTDFTLTISSLQPEDIATYYCQQYSDPPLTFGGGTKVEIK
Approved Dosing Info: Bio Avail: 85%

B3: evolocumab (antibody, chains of the INN, looked up, V domains shown)
VH: EVQLVQSGAEVKKPGASVKVSCKASGYTLTSYGISWVRQAPGQGLEWMGWVSFYNGNTNYAQKLQGRGTMTTDPSTSTAYMELRSLRSDDTAVYYCARGYGMDVWGQGTTVTVSS
VL: ESALTQPASVSGSPGQSITISCTGTSSDVGGYNSVSWYQQHPGKAPKLMIYEVSNRPSGVSNRFSGSKSGNTASLTISGLQAEDEADYYCNSYTSTSMVFGGGTKLTVL
Approved Dosing Info: Bio Avail: 82%

B4: concizumab (antibody, chains of the INN, looked up, V domains shown)
VH: EVQLVESGGGLVKPGGSLRLSCAASGFTFSNYAMSWVRQTPEKRLEWVATISRSGSYSYFPDSVQGRFTISRDNAKNSLYLQMNSLRAEDTAVYYCARLGGYDEGDAMDSWGQGTTVTVSS
VL: DIVMTQTPLSLSVTPGQPASISCKSSQSLLESDGKTYLNWYLQKPGQSPQLLIYLVSILDSGVPDRFSGSGSGTDFTLKISRVEAEDVGVYYCLQATHFPQTFGGGTKVEIK
Baseline dose: Bioavail. (dose info for non-approved agents from clinical trial information): 93.0%
